“And” between values parts separate entries of the source, which are not always exact repeats. Equal entries are not always repeated.

The results in this text go back to PMC11739670 (European Journal of Immunology, 2024).

Common to all, as to details: both partners purified
For assay [1], the target named is T1, MHCI-related protein 1 (MR1) with β2m, loaded with 6-formylpterin (human, UniProt Q95460 23-302; P61769 21-119, biotin on the Avi-tag (BirA ligase)).
T1 construct: MR1 heavy chain, human; beta-2 microglobulin; Small-molecule cargo: 6-formylpterin; Same protein chains as Dm11 and Dm13; they differ in the cargo only; also called MR1-6FP; not shown: Avi-tag, C-terminal, kept
As to the kind of experiment: SPR; BIAcore T200, CM5 chip with streptavidin; biotinylated pMHCI, MR1 or CD1 captured; serial dilution of CD8-Fc fusion injected; 25°C, PBS with 0.005% Tween 20; steady-state responses, 1:1 Langmuir fit. In general terms: In SPR one partner is held on a chip, and binding of the other changes the refractive index at the surface.

Assay [2] has as its target HLA-A*02:01 with peptide … (human | , biotin on the Avi-tag (BirA ligase)). The description is as above.
For assay [3], the target named is T2, MHCI-related protein 1 (MR1) with β2m, loaded with 5-(2-oxopropylideneamino)-6-d-ribitylaminouracil (human, UniProt Q95460 23-302; P61769 21-119, biotin on the Avi-tag (BirA ligase)).
T2 construct: MR1 heavy chain, human; beta-2 microglobulin; Small-molecule cargo: 5-OP-RU; Same protein chains as Dm12 and Dm13; they differ in the cargo only; also called MR1-5OPRU; not shown: Avi-tag, C-terminal, kept
Described as above.

Assay [4] has as its target T3, MHCI-related protein 1 (MR1) with β2m, loaded with 5-formyl salicylic acid (human, UniProt Q95460 23-302; P61769 21-119, biotin on the Avi-tag (BirA ligase)).
T3 construct: MR1 heavy chain, human; beta-2 microglobulin; Small-molecule cargo: 5-formyl salicylic acid; Same protein chains as Dm11 and Dm12; they differ in the cargo only; also called MR1-5FSA; not shown: Avi-tag, C-terminal, kept
Described as above.

For assay [5], the target named is HLA-A*03:01 with peptide … (human | , biotin on the Avi-tag (BirA ligase)). The description is as above.
Assay [6] addresses HLA-A*01:01 with peptide … (human | , biotin on the Avi-tag (BirA ligase)). The assay is described as above.
For assay [7], the target named is HLA-A*02:01 with peptide … (human | , biotin on the Avi-tag (BirA ligase)). Described as above. The source holds these as a separate data set.
The target in assay [8] is HLA-A*02:01 peptide-MHC class I (biotinylated pMHCI) (human | , biotin on the Avi-tag (BirA ligase)). The experiment in a line: SPR; biotinylated ligands (pMHCI, MR1, CD1) captured on streptavidin coupled to a CM5 chip; serial dilution of each CD8-Fc fusion injected; steady-state responses, 1:1 Langmuir fit; BIAcore T200, 25°C, PBS with 0.005% Tween 20.
The target of assay [9] is HLA-A*01:01 peptide-MHC class I (biotinylated pMHCI) (human | , biotin on the Avi-tag (BirA ligase)). Described as above.
Assay [10] addresses T4, MHCI-related protein 1 (MR1) with β-2 microglobulin, biotinylated, loaded with model ligands (human | , UniProt Q95460 23-292; P61769 21-119, biotin on the Avi-tag (BirA ligase)).
T4 construct: MR1 heavy chain, human; β-2 microglobulin; Small-molecule cargoes: 5-(2-oxopropylideneamino)-6-d-ribitylaminouracil, 6-formylpterin, 5-formyl salicylic acid; not shown: Avi-tag, C-terminal, kept
The description is as above.

B1: soluble human CD8αβ-Fc heterodimer (Fc fusion)
chain 1: not shown
chain 2: LQQTPAYIKVQTNKMVMLSCEAKISLSNMRIYWLRQRQAPSSDSHHEFLALWDSAKGTIHGEEVEQEKIAVFRDASRFILNLTSVKPEDSGIYFCMIVGSPELTFGKGTQLSVVDFLPTTAQPTKKSTLKKRVCRLPRPETQKGPLCSP
notes: CD8 alpha extracellular domain, human, Uniprot P01732, residues 22-182; CD8 beta extracellular domain, human, Uniprot P10966, residues 22-170; Cloned in pFUSE-hIgG1e3 behind a mouse kappa light-chain secretion signal; source: ExpiCHO, purified (protein A, gel filtration); copies: 1 + 1
One may read the Kd as a measure of binding affinity in units of concentration. Lower therefore signals a tighter complex. With B1, the Kd is 250 µM and 220 µM in [1]; 238 µM in [2]; 228 µM and 233 µM in [3]; 267 µM and 285 µM in [4]; 147 µM in [5]; 101 µM in assay [6]. Moreover, the equilibrium dissociation constant (Kd) in assay [7] was 255 µM and 244 µM.

B2: soluble human CD8αβ-Fc heterodimer (Fc fusion)
chain 1: not shown
chain 2: LQQTPAYIKVQTNKMVMLSCEAKISLSNMRIYWLRQRQAPSSDSHHEFLALWDSAKGTIHGEEVEQEKIAVFRDASRFILNLTSVKPEDSGIYFCMIVGSPELTFGKGTQLSVVDFLPTTAQPTKKSTLKKRVCRLPRPETQKGPLCSP
notes: CD8α extracellular domain, human, Uniprot P01732, residues 22-182; CD8β extracellular domain, human, Uniprot P10966, residues 22-170; Cloned into pFUSE-hIgG1e3 downstream of a mouse kappa light-chain secretion signal, subcloned into pcDNA3.1; source: ExpiCHO, purified (protein A, gel filtration on Superdex 200); copies: 1 + 1
As for B2, the Kd in assay [8] was 189 µM and ~230 µM; in assay [9] it was 107 µM; in assay [10], approximately 250 µM.
